Bridge positions count the residues as written; N and C are the ends. Peptide text beside a SMILES is read from it. * marks the point of attachment. Biotin = O=C1N[C@H]2[C@H](CS[C@H]2CCCCC(=O)*)N1

In one experiment the target is laminin (Mus musculus, UniProt P02468+P02469+P19137). The experiment is described as follows: SPR: laminin binding to collagelin.
The test system of another experiment is 9O12.2 IgG. The experiment is described as follows: SPR: 9O12.2 IgG injected over immobilized biotin-collagelin. The note with it: 9O12.2 IgG 5 μg/ml, competitor 25 μg/ml. The format is binding. On the technique in general: In SPR one partner is held on a chip, and binding of the other changes the refractive index at the surface.
Experiment [1] deals with type I equine fibrillar collagen (Horm). The experiment is described as follows: Solid phase assay on collagen-coated microtitration plates. The format is binding. As to conditions: competitor mixed with collagelin, 50 and 20 μg/mL (3J24.2: 50 μg/mL).

Method for 9O12.2 IgG: A Biacore 2000 instrument (GE Healthcare Europe GmbH, Orsay, France) (Université Paris 7, Institut Jacques Monod, Paris, France) was used to characterize the binding properties of the synthesized peptides. Biotinylated peptides (˜20 RU) were covalently coupled to the surface of a SA-sensorchip.
Glycine-HCl (10 mM pH 2.5) was injected for 30 s at 20 μL·min-1 to regenerate the sensorchip between each sample. Sensorgrams were analyzed with the BIA evaluation version 3.1 software. Kinetic constants (kon, koff) were deduced from the analysis of association and dissociation rates at four different IgG concentrations ranging from 1.25 to 10 μg·mL^−1. The dissociation constant KD was calculated from KD=koff/kon. […] In some experiments, the peptide was reduced by DTT on the sensor chip before injection of the IgG. Competition experiments were performed by mixing the IgG with recombinant soluble GPVI (25 μg·mL^−1). Collagen binding to the peptide was analysed by injecting type I equine collagen (Collagen Horm, Nycomed. Germany) (200 μg·mL^−1 in EBS-EP buffer) onto the peptide-coated sensorchip.

Take `CSCC[C@@H]1NC(=O)[C@H](C(C)C)NC(=O)[C@H](CCCNC(=N)N)NC(=O)[C@@H]2CCCN2C(=O)CNC(=O)[C@@H](NC(=O)CNC(=O)[C@H](CO)NC(=O)CNC(=O)[C@H](CO)NC(=O)CCCC[C@@H]2SC[C@@H]3NC(=O)N[C@@H]32)CSSC[C@@H](C(N)=O)NC(=O)[C@@H]2CCCN2C(=O)CNC(=O)[C@H](CCC(=O)O)NC(=O)[C@H](CC(=O)O)NC(=O)[C@H](CC(=O)O)NC(=O)CNC(=O)[C@H](CC(C)C)NC(=O)[C@H](Cc2c[nH]cn2)NC(=O)[C@H](CC(C)C)NC(=O)CNC(=O)[C@H](Cc2c[nH]cn2)NC1=O` [collagelin] (Biotin-SGSGCGPRVMHGLHLGDDEGPC-NH2; disulfide 5-22): at laminin, binding was characterised by a dissociation constant (Kd) of 18.3 µM.

B1: recombinant soluble GPVI: soluble recombinant GPVI-Fc fusion protein (protein)
chain: QSGPLPKPSLQALPSSLVPLEKPVTLRCQGPPGVDLYRLEKLSSSRYQDQAVLFIPAMKRSLAGRYRCSYQNGSLWSLPSDQLELVATGVFAKPSLSAQPGPAVSSGGDVTLQCQTRYGFDQFALYKEGDPAPYKNPERWYRASFPIITVTAAHSGTYRCYSFSSRDPYLWSAPSDPLELVVTGTSVTPSRLPTEPPSPVAEFSEATAELTVSFTNEVFTTETSRSITASPKESDSPAGPARQYYTKGN
modifications: left off: a dimerising Fc or GST
notes: soluble recombinant GPVI-Fc fusion protein
For B1, the “inhibition of 9O12.2 IgG binding to immobilized biotin-collagelin by competitor” value with 9O12.2 IgG was “completely inhibited”. In addition, the “inhibition of biotin-collagelin binding to collagen by competitor” value in experiment [1] is “completely inhibited”.

The term Kd denotes the constant that tells how readily two partners part at equilibrium. High values mean weaker binding, low ones tighter binding.

For the origin of these results see patent publication US8466258B2, “Polypeptides, cyclic polypeptides and pharmaceutical comprising thereof for non invasive specific imaging of fibrosis” (INSERM (Institut National de la Santé et de la Recherche …, priority 2008, dated 2013).
